Measurements published in US7045617.

Target: T1, IRS727 peptide substrate
T1 chain: KKKLPATGDYMNMSPVGD

B1: insulin receptor protein tyrosine kinase (IRK), activated recombinant (protein)
chain: VFPCSVYVPDEWEVSREKITLLRELGQGSFGMVYEGNARDIIKGEAETRVAVKTVNESASLRERIEFLNEASVMKGFTCHHVVRLLGVVSKGQPTLVVMELMAHGDLKSYLRSLRPEAENNPGRPPPTLQEMIQMAAEIADGMAYLNAKKFVHRDLAARNCMVAHDFTVKIGDFGMTRDIYETDYYRKGGKGLLPVRWMAPESLKDGVFTTSSDMWSFGVVLWEITSLAEQPYQGLSNEQVLKFVMDGGYLDQPDNCPERVTDLMRMCWQFNPKMRPTFLEIVNLLKDDLHPSFPEVSFFHSEENK
  Km app of the peptide substrate: Km app (IRS727)=280 µM
